In patent KR20160103767A (dated 2016):

T1: 재조합 인간 TFPI (Recombinant human Tissue Factor Pathway Inhibitor, full-form, Cat.No.TFPI-875H, Creative Biomart) (human, UniProt P10646 29-304)
T1 sequence: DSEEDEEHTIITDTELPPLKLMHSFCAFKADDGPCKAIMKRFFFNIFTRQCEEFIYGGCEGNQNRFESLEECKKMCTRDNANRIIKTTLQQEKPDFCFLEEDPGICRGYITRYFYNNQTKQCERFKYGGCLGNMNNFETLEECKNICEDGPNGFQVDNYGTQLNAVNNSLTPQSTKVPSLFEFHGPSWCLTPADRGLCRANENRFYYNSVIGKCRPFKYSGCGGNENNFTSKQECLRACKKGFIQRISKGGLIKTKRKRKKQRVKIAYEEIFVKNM

B1: 클론 T417 (anti-TFPI chimeric antibody) (antibody, V domains shown)
VH: EVHLVESGGDLVKPGGSLKLSCAASGFTFSSYAMSWVRQTPDKRLEWVATITTGGSYTYYPDSVKGRFTISRDNAKNTLYLQMSSLKSEDTAMYYCARQDGNFLMDYWGQGTTVTVSS
VL: not shown
B2: 클론 T308 (anti-TFPI chimeric antibody) (antibody, V domains shown)
VH: EVKLVESGGGLVKPGGSLKLSCAASGFTFSNYPMSWVRQTPEKRLEWVATISNSGSYTYYPDSVKGRFTISRDNAKNTLYLQMNSLRSEDTAMYYCARQVYGNYEDFDYWGQGTTLTVSS
VL: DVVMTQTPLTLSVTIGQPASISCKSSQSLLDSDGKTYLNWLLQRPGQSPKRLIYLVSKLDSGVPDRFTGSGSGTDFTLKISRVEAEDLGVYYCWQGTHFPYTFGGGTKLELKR

Biological target: T1, 재조합 인간 TFPI (Recombinant human Tissue …)
Test: cell-based or functional assay

Row | Binder | FXa activity assay: TFPI inhibition (10nM comparison), relative to positive control (mAb2021) [%] | FXa activity assay: TFPI inhibition at 10nM antibody, relative to positive control [%] | FXa activity assay: TFPI inhibition at 10nM antibody, relative to positive control (mAb2021) [%] | FXa activity assay: TFPI inhibition at 40nM antibody, relative to positive control [%] | TF/FVIIa/FXa complex assay: TFPI inhibition at 50nM antibody, relative to positive control (no antibody, no TFPI) [%] | TF/FVIIa/FXa complex assay: TFPI inhibition at 100nM antibody, relative to positive control (no antibody, no TFPI) [%] | TF/FVIIa/FXa complex assay: TFPI inhibition, relative to positive control (no antibody, no TFPI) [%]
1 | B1 | 77 | 72 | 78.4 | 89 | 100 | 100 | 100
2 | B2 |  | ~64 |  | 91 | ~87 | 100 | 
